Positions of bridges follow the written chain, without caps; N, C: chain ends. Non-standard residues stand in square brackets, D forms with d. Residues, ends and D or L forms follow the SMILES beside them. No end group written: not given here. *: point of attachment. Biotin = O=C1N[C@H]2[C@H](CS[C@H]2CCCCC(=O)*)N1; Phe(F5) = N[C@@H](Cc1c(F)c(F)c(F)c(F)c1F)C(=O)O

The record followed here is US20170246311A1, “PEPTIDES FOR BINDING ALTERNATIVELY ACTIVATED MACROPHAGES” (University of Washington, priority 2016, published 2017).

Series [1] has as its target M2pep receptor on M2 macrophages (identity unknown) (mouse). Kind of series: flow cytometry binding curves on murine M2 macrophages.
For series [2] the target is unchanged. Description: flow cytometry on murine M2 macrophages, biotinylated peptide + streptavidin-FITC; apparent KD from half-maximal MFI.
A short description of series [3]: Solubility of cyclized peptide analogs.
Series [4] relates to macrophages. The format is cell-based, mouse.
For series [5], the target named is M2pep receptor on M2 macrophages (identity unknown) (mouse). Kind of series: flow cytometry on murine M2 macrophages; apparent KD. (Flow cytometry measures light scatter and fluorescence of single cells or particles in a stream.)

DFBP-cyclized M2pep(RY)Biotin (peptide): the fold enhancement of binding activity against DFBP-cyclized M2pepBiotin in series [1] amounted to 4 fold. The Kd in series [2] turned out to be 2.03 µM.
With `CC(C)[C@@H]1NC(=O)CNC(=O)[C@H](Cc2c[nH]c3ccccc23)NC(=O)[C@@H]2CCCN2C(=O)[C@H](CC(=O)O)NC(=O)[C@H](CCC(N)=O)NC(=O)[C@H](CCC(=O)O)NC(=O)[C@H](Cc2ccc(O)cc2)NC(=O)CNC(=O)[C@H](Cc2c(F)c(F)c(F)c(F)c2F)NC(=O)[C@H](Cc2c(F)c(F)c(F)c(F)c2F)NC(=O)[C@@H](N)CSSC[C@@H](C(=O)N[C@H](CCCCN)C(=O)N[C@H](CCCCN)C(=O)N[C@H](CCCCN)C(=O)N[C@@H](CCCCNC(=O)CCCC[C@@H]2SC[C@@H]3NC(=O)N[C@@H]32)C(N)=O)NC(=O)CNC(=O)[C@H](Cc2ccc(O)cc2)NC(=O)[C@H](Cc2c[nH]c3ccccc23)NC(=O)[C@H](Cc2ccc(O)cc2)NC(=O)[C@H](CCCNC(=N)N)NC1=O` [F(F5)F(F5)-cyclized M2pep(RY)Biotin] (H-C[Phe(F5)][Phe(F5)]GYEQDPWGVRYWYGC[dK][dK][dK]K(Biotin)-NH2; disulfide 1-18), the “solubility (in words)” value in series [3] is reported as “less soluble than the FF-cyclized analog”. In addition, the toxicity to macrophages result in series [4] is given as “very toxic to macrophages even at low micromolar concentrations”.
Turning to `CC(C)[C@@H]1NC(=O)CNC(=O)[C@H](Cc2c[nH]c3ccccc23)NC(=O)[C@@H]2CCCN2C(=O)[C@H](CC(=O)O)NC(=O)[C@H](CCC(N)=O)NC(=O)[C@H](CCC(=O)O)NC(=O)[C@H](Cc2ccc(O)cc2)NC(=O)CNC(=O)[C@H](Cc2ccccc2)NC(=O)[C@H](Cc2ccccc2)NC(=O)[C@@H](N)CSSC[C@@H](C(=O)N[C@H](CCCCN)C(=O)N[C@H](CCCCN)C(=O)N[C@H](CCCCN)C(=O)N[C@@H](CCCCNC(=O)CCCC[C@@H]2SC[C@@H]3NC(=O)N[C@@H]32)C(N)=O)NC(=O)CNC(=O)[C@H](Cc2ccc(O)cc2)NC(=O)[C@H](Cc2c[nH]c3ccccc23)NC(=O)[C@H](Cc2ccc(O)cc2)NC(=O)[C@H](CCCNC(=N)N)NC1=O` [FF-cyclized M2pep(RY)Biotin] (H-CFFGYEQDPWGVRYWYGC[dK][dK][dK]K(Biotin)-NH2; disulfide 1-18), the “solubility (in words)” value in series [3] is reported as “significantly reduces solubility”.

B1: M2pepBiotin (peptide)
peptide: YEQDPWGVKWWYGGGSKKK(Biotin)-NH2
For the molecule B1, the Kd in series [5] was 220 µM.
